Measured values published in paper PMC4393111.
Blank lines part the entries; values can stand above or below the substance they belong to.

What was measured:
[1] = target: GFP-Dzip1 (full-length mouse Dzip1) (mouse) (UniProt Q8BMD2); assay: co-IP; both partners co-expressed with tags in HEK 293T cells (some in G0 phase; some treated with the GSK3 inhibitors BIO or CHIR99021, the CK1 inhibitor D4476 or the CK2 inhibitor CX4945); IP of the GFP-, CFP/YFP-tagged partner; IP buffer 0.1% NP-40, 50 mM HEPES pH 7.00, 125 mM NaCl, 4°C
[2] = target: GFP-Rab8^T22N (UniProt P61006); assay: as above
[3] = target: CFP-RBD-YFP (Rab8-binding domain of Rabin8 between CFP and YFP) (human)
[4] = target: CFP-RBD-YFP (Rab8-binding domain of Rabin8 between CFP and YFP) (human); remark: listed apart in the source

Chain of UniProt P61006 (P61006 whole entry T22N, the tested form may be a part): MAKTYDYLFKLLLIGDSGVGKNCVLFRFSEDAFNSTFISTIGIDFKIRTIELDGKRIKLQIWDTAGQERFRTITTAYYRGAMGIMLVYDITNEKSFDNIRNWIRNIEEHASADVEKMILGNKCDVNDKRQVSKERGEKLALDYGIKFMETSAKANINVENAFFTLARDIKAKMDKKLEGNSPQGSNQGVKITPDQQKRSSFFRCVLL

fold co-immunoprecipitated against Rab8^Q67L [1]: 3.5 fold
Substance: Flag-Rab8^T22N (from UniProt P61006 1-207) (natural protein)

fold co-immunoprecipitated against wild-type Rab8 [2]: 5 fold
Substance: Myc-Dzip1 (from UniProt Q8BMD2 1-852) (natural protein)

FE^CFP after YFP photo-bleaching (AB-FRET of the reporter CFP-RBD-YFP) around the cilium base, G0-phase NIH 3T3 RNAi control cells [3]: 9.3%
FE^CFP after YFP photo-bleaching (AB-FRET of the reporter CFP-RBD-YFP) at the basal body, G0-phase NIH 3T3 cells treated with the GSK3 inhibitor BIO [4]: 3.3%
FE^CFP after YFP photo-bleaching (AB-FRET of the reporter CFP-RBD-YFP) at the basal body, G0-phase NIH 3T3 cells treated with the GSK3 inhibitor CHIR99021 [4]: 2.6%
FE^CFP after YFP photo-bleaching (AB-FRET of the reporter CFP-RBD-YFP) at the basal body, G0-phase NIH 3T3 cells, untreated control [4]: 4.8%
Substance: endogenous Rab8 of NIH 3T3 cells (from UniProt P55258 1-207) (natural protein)
